According to US20190352409A1 (AUTOLUS, published 2019):

T1: Transmembrane activator and calcium modulator and cyclophilin ligand (CAML) interactor (TACI), on cells (human, UniProt O14836 1-293)
T1 chain: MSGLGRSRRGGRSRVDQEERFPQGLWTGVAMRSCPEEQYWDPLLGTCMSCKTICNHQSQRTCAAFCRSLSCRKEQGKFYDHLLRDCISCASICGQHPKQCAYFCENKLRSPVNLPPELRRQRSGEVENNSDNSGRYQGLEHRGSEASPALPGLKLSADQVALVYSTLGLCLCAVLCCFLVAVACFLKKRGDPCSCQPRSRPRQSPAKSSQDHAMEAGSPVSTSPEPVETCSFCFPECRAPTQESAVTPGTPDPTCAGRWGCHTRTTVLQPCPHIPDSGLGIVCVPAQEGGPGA

T2: Transmembrane activator and calcium modulator and cyclophilin ligand (CAML) interactor (TACI), on cells (human, UniProt O14836 1-293)
T2 construct: whole, on cells; also called TNFRSF13B; SupT1 TACI cells
T2 sequence (looked up): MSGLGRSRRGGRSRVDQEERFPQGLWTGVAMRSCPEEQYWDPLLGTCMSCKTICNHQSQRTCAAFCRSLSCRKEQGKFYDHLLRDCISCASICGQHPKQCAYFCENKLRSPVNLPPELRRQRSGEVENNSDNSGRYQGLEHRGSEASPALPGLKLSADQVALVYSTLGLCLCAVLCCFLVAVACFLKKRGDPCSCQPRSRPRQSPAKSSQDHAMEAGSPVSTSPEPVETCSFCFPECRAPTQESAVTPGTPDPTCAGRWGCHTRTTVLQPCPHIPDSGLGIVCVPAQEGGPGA


What was measured:
[1] = target: T1, Transmembrane activator and calcium …; assay: Biacore SPR
[2] = target: T2, Transmembrane activator and calcium …; assay: flow cytometry on TACI positive SupT1 cells (FIG. 6b)
Description: b) Confirmatory analysis of TACI binding by flow cytometry. Hybridoma lines were screened on TACI positive and BCMA positive SupT1 cells. The four hybridomas with the highest reactivity to SupT1 TACI cells were chosen for subcloning and characterisation
Five mice with TACI positive sera were selected for a final immunization boost before the spleens were harvested for B cell isolation and hybridoma production. Hybridoma fusions of 10×96-well plates with lymphocytes from the selected mice were performed. Hybridoma supernatants were screened for reactive anti-TACI antibodies by ELISA screening against recombinant human TACI purified protein (Peprotech, 310-17), representative data is shown in FIG. 6a. ELISA positive hybridoma supernatants were tested by flow cytometry, on SupT1 cells engineered to overexpress TACI. As a control BCMA expressing SupT1 cells were used, FIG. 6b. Candidate hybridomas were expanded.

Binder	Kd [1] [pM]	binding result [2]
1G6 anti-TACI monoclonal antibody (mouse hybridoma) (antibody, V domains shown, Tested as hybridoma supernatant from BalBC mice) VH: QVQLKQSGPGLVAPSQSLSITCTVSGFSLTSYGVDWVRQSPGKGLEWLGIIWGGGRTNYNSAFKSRLSISKDNSKSQVFLKMNSLQTDDTAMYYCASGDRAADYWGQGTSVTVSS VL: DIVMTQSQKFMSTTVGDRVTITCKASQNVGTAVAWYQQKPGQSPKLLIYSASNRYTGVPVRFTGSGSGTDFTLTINNMQSEDLADYFCQQYSSYPLTFGAGTKLELK	210	binds
2H6 anti-TACI monoclonal antibody (mouse hybridoma) (antibody, V domains shown) VH: EVQLQQSGPELVKPGASVRMSCKASGYTFTNYVMHWVKQKPGQGLEWIGYINPSNDDTKYTEKFKGKATLTSDKSSSTAYMELSSLTSEDSAVYYCARGTHGDYYALDYWGQGTSVTVSS VL: DIVLTQSPASLAVSLGQSVTISCRASESVEYYGTSLMQWYQQKPGQAPKLLIYGASNVESGVPARFSGSGSGTDFSLNIHPVEEDDIAMYFCQQSRKVPWTFGGGTKLEI	51	–
2G2 anti-TACI monoclonal antibody (mouse hybridoma) (antibody, V domains shown, Tested as hybridoma supernatant from BalBC mice) VH: QVTLKESGPGMLQPSQTLSLTCSFSGFSLSTFGMGVGWIRQPSGKGLEWLAHIWWDDAQYSNPALRSRLTISKDTSKNQVFLKIANVDTADTATYYCSRIHSYYSYDEGFAYWGQGTLVTVSS VL: DIVMTQSQKFMSTTVGDRVSITCKASQNVGTAVAWYQQKPGQSPKLLIYSASNRYTGVPDRFTGSGSGTDFTLTISNMQSEDLADYFCQQYSSYRTFGGGTKLEIKR	924	binds
4B11 anti-TACI monoclonal antibody (mouse hybridoma) (antibody, V domains shown, Tested as hybridoma supernatant from BalBC mice) VH: EVQLQQSVAELVRPGASVKLSCTASGFNIKNTYIHWVKQRPEQGLEWIGKIDPANGNSEYAPKFQGKATITADTSSNTAYLQLSSLTSEDTTIYYCTSGYGAYWGQGTTLTVSS VL: DIVLSQSPSSLAVSIGEKVTLSCKSSQSLLYSSNQKNYLAWFQQKPGQSLKLLIYWASTREFGVPDRFTGSGSGTDFTLTISSVKTEDLAVYYCQQYYTWTFGGGTKLEIK	379	binds
